Legend:
[1] = molecular target: T1, murine low density lipoprotein receptor-related protein (LRP) / α2-macroglobulin receptor, CTGF receptor on … (murine, UniProt Q91ZX7 20-4545); assay: competition with 0.1 nM 125I-CTGF on BMS-2 cells
T1 construct: whole, on cells; they are fragments found by mass spectrometry, not the construct; In the cell the protein is cleaved into non-covalently joined α and β subunits (background statement); also called α2MR; LRP/α2MR

[2] = molecular target: T2, CTGF receptor (LRP), cells not named; assay: 200 pM iodinated CTGF with 0-6.5 nM unlabeled CTGF on cells, S-SMCC cross-linking, densitometry of the complex bands
T2 construct: whole, on cells; 'other cells examined'); also called cross-linked complex; 620 kDa protein

[3] = molecular target: human low density lipoprotein receptor-related protein (LRP) / α2-macroglobulin receptor, CTGF receptor on … (human, UniProt Q07954 20-4544); assay: cell-based or functional assay
[4] = molecular target: high affinity binding site for CTGF on cells; assay: equilibrium binding of 125I-rhCTGF to cells (FIG. 2, BMS2), non-linear regression; high affinity site
[5] = molecular target: T2, CTGF receptor (LRP), cells not named; assay: equilibrium binding of 125I-rhCTGF to other cells with a single class of sites
[6] = molecular target: T1, murine low density lipoprotein …; assay: equilibrium binding of 125I-rhCTGF to cells (FIG. 2, BMS2), non-linear regression; low affinity site

T1 sequence (Q91ZX7 20-4545): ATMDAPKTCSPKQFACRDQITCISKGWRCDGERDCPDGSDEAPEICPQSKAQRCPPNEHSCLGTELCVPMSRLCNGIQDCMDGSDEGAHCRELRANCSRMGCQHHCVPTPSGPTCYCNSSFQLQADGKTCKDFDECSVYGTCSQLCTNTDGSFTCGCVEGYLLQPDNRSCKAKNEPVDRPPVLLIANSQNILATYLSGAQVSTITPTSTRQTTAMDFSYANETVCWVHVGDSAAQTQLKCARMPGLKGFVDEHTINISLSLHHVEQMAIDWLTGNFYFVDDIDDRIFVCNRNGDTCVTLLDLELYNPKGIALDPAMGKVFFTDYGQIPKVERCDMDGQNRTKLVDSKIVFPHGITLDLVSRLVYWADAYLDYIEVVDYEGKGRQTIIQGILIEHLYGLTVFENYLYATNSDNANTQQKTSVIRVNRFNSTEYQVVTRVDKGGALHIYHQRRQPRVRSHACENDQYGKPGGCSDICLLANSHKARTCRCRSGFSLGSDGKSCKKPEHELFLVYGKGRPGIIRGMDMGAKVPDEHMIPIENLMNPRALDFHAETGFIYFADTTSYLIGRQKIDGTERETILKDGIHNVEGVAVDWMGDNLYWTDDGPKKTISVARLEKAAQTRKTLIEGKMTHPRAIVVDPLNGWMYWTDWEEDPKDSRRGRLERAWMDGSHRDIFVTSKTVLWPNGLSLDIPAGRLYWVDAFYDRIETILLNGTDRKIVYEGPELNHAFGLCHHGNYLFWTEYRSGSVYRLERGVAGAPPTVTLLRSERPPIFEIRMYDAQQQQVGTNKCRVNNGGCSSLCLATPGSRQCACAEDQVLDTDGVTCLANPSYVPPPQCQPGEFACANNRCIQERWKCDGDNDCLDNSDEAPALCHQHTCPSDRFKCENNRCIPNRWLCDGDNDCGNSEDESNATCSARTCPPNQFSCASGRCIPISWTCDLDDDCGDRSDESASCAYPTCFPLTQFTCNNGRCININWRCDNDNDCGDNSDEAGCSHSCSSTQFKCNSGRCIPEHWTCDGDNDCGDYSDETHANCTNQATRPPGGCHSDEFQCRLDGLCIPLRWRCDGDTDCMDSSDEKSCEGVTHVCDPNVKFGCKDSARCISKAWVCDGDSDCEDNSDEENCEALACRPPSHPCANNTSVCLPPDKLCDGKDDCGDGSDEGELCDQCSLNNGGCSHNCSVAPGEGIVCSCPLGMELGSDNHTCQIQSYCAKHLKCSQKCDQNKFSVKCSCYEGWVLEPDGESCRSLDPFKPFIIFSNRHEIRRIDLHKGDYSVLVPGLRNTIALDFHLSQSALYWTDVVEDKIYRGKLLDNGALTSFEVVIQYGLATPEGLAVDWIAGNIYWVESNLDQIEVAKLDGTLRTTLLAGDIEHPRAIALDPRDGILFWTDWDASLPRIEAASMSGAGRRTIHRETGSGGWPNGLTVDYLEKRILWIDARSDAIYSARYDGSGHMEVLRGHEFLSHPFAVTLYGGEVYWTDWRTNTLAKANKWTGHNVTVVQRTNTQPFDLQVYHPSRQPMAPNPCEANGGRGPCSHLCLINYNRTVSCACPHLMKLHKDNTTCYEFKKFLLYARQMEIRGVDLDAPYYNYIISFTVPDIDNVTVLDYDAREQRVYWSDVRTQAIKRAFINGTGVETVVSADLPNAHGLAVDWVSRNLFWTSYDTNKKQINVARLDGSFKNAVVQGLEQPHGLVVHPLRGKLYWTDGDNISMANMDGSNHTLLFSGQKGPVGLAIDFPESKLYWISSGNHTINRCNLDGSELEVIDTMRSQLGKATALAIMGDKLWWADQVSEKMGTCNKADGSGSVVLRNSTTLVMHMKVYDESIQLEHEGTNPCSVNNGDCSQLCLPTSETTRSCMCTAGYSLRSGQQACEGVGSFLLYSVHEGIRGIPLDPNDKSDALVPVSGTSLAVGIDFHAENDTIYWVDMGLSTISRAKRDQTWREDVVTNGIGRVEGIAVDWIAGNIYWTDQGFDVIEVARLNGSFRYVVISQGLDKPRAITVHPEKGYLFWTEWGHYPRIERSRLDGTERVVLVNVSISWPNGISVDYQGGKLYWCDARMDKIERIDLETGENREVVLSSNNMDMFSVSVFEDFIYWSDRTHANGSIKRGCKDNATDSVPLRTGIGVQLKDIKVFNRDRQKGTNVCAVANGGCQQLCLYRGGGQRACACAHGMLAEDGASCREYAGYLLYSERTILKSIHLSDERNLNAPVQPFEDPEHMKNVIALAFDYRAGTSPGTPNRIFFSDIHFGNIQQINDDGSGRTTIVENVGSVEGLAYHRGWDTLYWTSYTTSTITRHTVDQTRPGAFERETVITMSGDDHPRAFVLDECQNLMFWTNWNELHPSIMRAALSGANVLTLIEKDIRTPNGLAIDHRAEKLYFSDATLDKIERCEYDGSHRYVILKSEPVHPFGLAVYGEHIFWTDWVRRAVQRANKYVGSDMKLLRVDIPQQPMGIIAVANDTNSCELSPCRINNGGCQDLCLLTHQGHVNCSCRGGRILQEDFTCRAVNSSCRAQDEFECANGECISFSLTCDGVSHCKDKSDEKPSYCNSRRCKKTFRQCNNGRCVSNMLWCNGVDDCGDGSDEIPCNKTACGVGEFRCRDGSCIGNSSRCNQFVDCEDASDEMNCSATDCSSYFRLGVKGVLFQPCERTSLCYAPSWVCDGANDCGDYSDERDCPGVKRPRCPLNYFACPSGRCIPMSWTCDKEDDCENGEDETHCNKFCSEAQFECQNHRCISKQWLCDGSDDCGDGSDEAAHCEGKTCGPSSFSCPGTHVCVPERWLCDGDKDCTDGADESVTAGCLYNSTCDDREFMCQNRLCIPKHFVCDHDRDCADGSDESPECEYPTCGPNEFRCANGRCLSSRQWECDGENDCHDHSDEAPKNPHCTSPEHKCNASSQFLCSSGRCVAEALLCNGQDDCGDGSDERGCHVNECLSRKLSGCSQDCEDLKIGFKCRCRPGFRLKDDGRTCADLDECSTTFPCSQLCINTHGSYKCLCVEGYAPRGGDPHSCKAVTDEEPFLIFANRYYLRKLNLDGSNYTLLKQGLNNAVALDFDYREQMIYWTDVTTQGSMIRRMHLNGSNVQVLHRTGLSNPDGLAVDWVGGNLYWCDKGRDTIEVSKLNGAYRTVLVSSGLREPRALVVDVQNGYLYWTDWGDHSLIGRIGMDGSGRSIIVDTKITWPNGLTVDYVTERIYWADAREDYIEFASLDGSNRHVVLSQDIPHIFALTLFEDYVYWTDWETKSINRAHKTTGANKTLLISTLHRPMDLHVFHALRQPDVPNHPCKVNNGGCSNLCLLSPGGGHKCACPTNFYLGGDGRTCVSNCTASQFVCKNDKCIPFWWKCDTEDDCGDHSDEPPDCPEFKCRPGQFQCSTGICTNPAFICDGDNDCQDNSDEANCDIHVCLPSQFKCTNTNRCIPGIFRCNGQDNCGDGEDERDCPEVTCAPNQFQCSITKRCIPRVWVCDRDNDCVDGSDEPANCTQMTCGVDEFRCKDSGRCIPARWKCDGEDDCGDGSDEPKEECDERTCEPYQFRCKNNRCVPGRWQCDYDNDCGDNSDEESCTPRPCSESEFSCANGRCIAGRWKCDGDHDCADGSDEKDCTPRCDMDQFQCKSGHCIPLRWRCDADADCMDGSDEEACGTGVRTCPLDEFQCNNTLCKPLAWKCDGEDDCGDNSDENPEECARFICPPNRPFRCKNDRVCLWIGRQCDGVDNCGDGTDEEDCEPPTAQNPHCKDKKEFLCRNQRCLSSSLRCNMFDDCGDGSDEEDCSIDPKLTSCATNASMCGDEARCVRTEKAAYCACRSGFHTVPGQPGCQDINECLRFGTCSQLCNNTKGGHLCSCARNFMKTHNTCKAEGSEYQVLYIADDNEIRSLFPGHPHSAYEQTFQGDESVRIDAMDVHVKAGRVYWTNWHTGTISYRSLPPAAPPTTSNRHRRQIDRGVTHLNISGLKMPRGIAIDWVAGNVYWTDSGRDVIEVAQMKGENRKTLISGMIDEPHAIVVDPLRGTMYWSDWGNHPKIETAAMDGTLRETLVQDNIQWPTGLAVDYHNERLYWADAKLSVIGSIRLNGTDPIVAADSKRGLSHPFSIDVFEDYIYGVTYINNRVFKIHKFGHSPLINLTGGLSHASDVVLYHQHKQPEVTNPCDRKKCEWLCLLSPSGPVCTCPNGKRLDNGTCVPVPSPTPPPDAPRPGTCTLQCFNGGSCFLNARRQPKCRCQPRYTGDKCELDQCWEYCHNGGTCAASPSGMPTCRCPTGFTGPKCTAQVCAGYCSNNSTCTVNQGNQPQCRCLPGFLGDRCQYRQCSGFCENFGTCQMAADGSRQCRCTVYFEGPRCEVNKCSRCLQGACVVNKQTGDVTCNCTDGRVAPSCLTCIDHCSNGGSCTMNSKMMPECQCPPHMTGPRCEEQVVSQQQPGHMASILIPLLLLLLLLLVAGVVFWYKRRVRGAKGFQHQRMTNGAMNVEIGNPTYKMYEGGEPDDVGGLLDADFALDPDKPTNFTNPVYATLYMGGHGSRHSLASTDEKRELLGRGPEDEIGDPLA

binding result [1]	IC50 [2]	degradation of 125I-CTGF, control MG63 cells against cells treated with TGF-β for 48 hours [3]	Kd [4]	Kd [5]	Kd [6]	Binder
binds						lipoprotein lipase purified from bovine milk (enzyme, UniProt P11151 29-478, looked up, also called LpL) DRITGGKDFRDIESKFALRTPEDTAEDTCHLIPGVTESVANCHFNHSSKTFVVIHGWTVTGMYESWVPKLVAALYKREPDSNVIVVDWLSRAQQHYPVSAGYTKLVGQDVAKFMNWMADEFNYPLGNVHLLGYSLGAHAAGIAGSLTNKKVNRITGLDPAGPNFEYAEAPSRLSPDDADFVDVLHTFTRGSPGRSIGIQKPVGHVDIYPNGGTFQPGCNIGEALRVIAERGLGDVDQLVKCSHERSVHLFIDSLLNEENPSKAYRCNSKEAFEKGLCLSCRKNRCNNMGYEINKVRAKRSSKMYLKTRSQMPYKVFHYQVKIHFSGTESNTYTNQAFEISLYGTVAESENIPFTLPEVSTNKTYSFLLYTEVDIGELLMLKLKWISDSYFSWSNWWSSPGFDIGKIRVKAGETQKKVIFCSREKMSYLQKGKSPVIFVKCHDKSLNRKSG
	~1 nM	≥ 3 fold	~0.137 nM	~1 nM	~1 nM	recombinant human connective tissue growth factor (rhCTGF) (ligand, UniProt P29279 27-349, looked up, radioiodinated (125I; Iodobeads or chloramine-T) when used as tracer; unlabeled when used as competitor, mature; Form set to mature because the protein was secreted and purified from conditioned medium) QNCSGPCRCPDEPAPRCPAGVSLVLDGCGCCRVCAKQLGELCTERDPCDPHKGLFCHFGSPANRKIGVCTAKDGAPCIFGGTVYRSGESFQSSCKYQCTCLDGAVGCMPLCSMDVRLPSPDCPFPRRVKLPGKCCEEWVCDEPKDQTVVGPALAAYRLEDTFGPDPTMIRANCLVQTTEWSACSKTCGMGISTRVTNDNASCRLEKQSRLCMVRPCEADLEENIKKGKKCIRTPKISKPIKFELSGCTSMKTYRAKFCGVCTDGRCCTPHRTTTLPVEFKCPDGEVMKKNMMFIKTCACHYNCPGDNDIFESLYYRKMYGDMA

Reference: patent publication US6555322 (FIBROGEN, dated 2003)
